Like-named read-outs stand apart in the source and are kept apart here. Blank lines part the entries; values can stand above or below the binder they belong to.
Columns and labels:
human CD25 [1] = molecular target: T1, human CD25 (human, UniProt P01589 22-272); test: flow cytometry, SU-DHL-1 cells
T1 construct: whole, on cells; Always presented on cells; also called huCD25; IL2Rα
T1 sequence (looked up): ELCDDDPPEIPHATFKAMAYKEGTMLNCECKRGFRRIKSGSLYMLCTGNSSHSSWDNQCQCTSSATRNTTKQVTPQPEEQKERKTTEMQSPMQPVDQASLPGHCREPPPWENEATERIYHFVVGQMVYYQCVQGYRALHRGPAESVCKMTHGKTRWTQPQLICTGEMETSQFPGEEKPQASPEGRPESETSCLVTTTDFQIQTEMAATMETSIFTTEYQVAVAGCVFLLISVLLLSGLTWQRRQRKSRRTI
Description: (§1) Briefly, the CHOK1-huCD25 cells and HEK293-cynoCD25 cells were digested, the SU-DHL-1 cells, Karpas299 cells, Treg cells and Teff cells were collected, and the cells were resuspended in PBS containing 2% BSA. The cells were adjusted to a cell density of 1×10⁶ cells/mL, respectively. […] The cells were incubated at 4° C. for 1 hour in the dark. After the incubation, the cells were rinsed twice by adding pre-chilled PBS containing 2% BSA at 100 μL/well, and centrifuged at 500 g at 4° C. for 5 minutes, and the supernatant was discarded. […] The cells were washed twice by adding pre-chilled PBS containing 2% BSA at 100 μL/well, and centrifuged at 500 g at 4° C. for 5 minutes, and the supernatant was discarded. Finally, the cells were resuspended in pre-chilled PBS containing 2% BSA at 200 μL/well, and the fluorescence signal values were read using a BD CantoII flow cytometer.

cynomolgus monkey CD25 [2] = molecular target: T2, cynomolgus monkey CD25 (cynomolgus monkey, UniProt H6WS54 22-272); test: flow cytometry, HEK293-cynoCD25 cells
T2 construct: whole, on cells; also called cynoCD25
T2 sequence: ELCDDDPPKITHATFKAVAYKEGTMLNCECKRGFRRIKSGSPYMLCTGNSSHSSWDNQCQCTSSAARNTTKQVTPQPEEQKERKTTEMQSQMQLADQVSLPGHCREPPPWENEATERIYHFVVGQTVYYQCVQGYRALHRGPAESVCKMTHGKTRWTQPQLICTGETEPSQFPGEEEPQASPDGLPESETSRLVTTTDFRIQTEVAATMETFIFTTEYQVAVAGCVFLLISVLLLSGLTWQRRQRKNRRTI
Description: as §1

human CD25 [3] = molecular target: T1, human CD25; test: flow cytometry, Karpas299 cells
human CD25 [4] = molecular target: T1, human CD25; test: flow cytometry, Karpas299 cells; remark: listed apart in the source
human CD25 [5] = molecular target: T1, human CD25; test: flow cytometry, SU-DHL-1 cells; remark: listed apart in the source
Description: as §1

human CD25 [6] = molecular target: T1, human CD25; test: flow cytometry, SU-DHL-1 cells; remark: listed apart in the source
Description: as §1

human CD25 [7] = molecular target: T1, human CD25; test: flow cytometry, Karpas299 cells; remark: listed apart in the source
Description: (§2) This example was intended to study the in-vitro binding activity of H2L2 monoclonal antibodies against human CD25 to human/cynomolgus monkey CD25. […] Briefly, the CHOK1-huCD25 cells and HEK293-cynoCD25 cells were digested, the SU-DHL-1 cells, Karpas299 cells, Treg cells and Teff cells were collected, and the cells were resuspended in PBS containing 2% BSA. The cells were adjusted to a cell density of 1×10⁶ cells/mL, respectively. […] The cells were incubated at 4° C. for 1 hour in the dark. After the incubation, the cells were rinsed twice by adding pre-chilled PBS containing 2% BSA at 100 μL/well, and centrifuged at 500 g at 4° C. for 5 minutes, and the supernatant was discarded. […] The cells were washed twice by adding pre-chilled PBS containing 2% BSA at 100 μL/well, and centrifuged at 500 g at 4° C. for 5 minutes, and the supernatant was discarded. Finally, the cells were resuspended in pre-chilled PBS containing 2% BSA at 200 μL/well, and the fluorescence signal values were read using a BD CantoII flow cytometer.

human CD25 [8] = molecular target: T1, human CD25; test: flow cytometry, Karpas299 cells; remark: listed apart in the source
Description: as §2

cynomolgus monkey CD25 [9] = molecular target: T2, cynomolgus monkey CD25; test: flow cytometry, HEK293-cynoCD25 cells; remark: listed apart in the source
Description: as §2

human CD25 [10] = molecular target: T1, human CD25; test: flow cytometry, SU-DHL-1 cells; remark: listed apart in the source
Description: as §1

human CD25 [11] = molecular target: T1, human CD25; test: flow cytometry, CHOK1-huCD25 cells
Description: as §2

human CD25 [12] = molecular target: T1, human CD25; test: flow cytometry, Karpas299 cells; remark: listed apart in the source
human CD25 [13] = molecular target: T1, human CD25; test: flow cytometry, SU-DHL-1 cells; remark: listed apart in the source
Description: as §1

cynomolgus monkey CD25 [14] = molecular target: T2, cynomolgus monkey CD25; test: flow cytometry, HEK293-cynoCD25 cells; remark: listed apart in the source
Description: as §1

cynomolgus monkey CD25 [15] = molecular target: T2, cynomolgus monkey CD25; test: flow cytometry, HEK293-cynoCD25 cells; remark: listed apart in the source
Description: as §1

human CD25 [16] = molecular target: T1, human CD25; test: flow cytometry, Karpas299 cells; remark: listed apart in the source
Description: as §1

human CD25 [17] = molecular target: T1, human CD25; test: flow cytometry, CHOK1-huCD25 cells; remark: listed apart in the source
Description: as §1

human CD25 [18] = molecular target: T1, human CD25; test: flow cytometry, SU-DHL-1 cells; remark: listed apart in the source
Description: as §1

human CD25 [19] = molecular target: T1, human CD25; test: flow cytometry, SU-DHL-1 cells; remark: listed apart in the source
Description: as §1

human CD25 [20] = molecular target: T1, human CD25; test: flow cytometry, Karpas299 cells; remark: listed apart in the source
Description: as §2

cynomolgus monkey CD25 [21] = molecular target: T2, cynomolgus monkey CD25; test: flow cytometry, HEK293-cynoCD25 cells; remark: listed apart in the source
Description: as §2

human CD25 [22] = molecular target: T1, human CD25; test: flow cytometry, SU-DHL-1 cells; remark: listed apart in the source
Description: as §1

human CD25 [23] = molecular target: T1, human CD25; test: flow cytometry, Karpas299 cells; remark: listed apart in the source
Description: as §2

EC50 (human CD25 [1]): 1.36 nM
Maximum MFI (human CD25 [1]): 32800 MFI
EC50 (cynomolgus monkey CD25 [2]): 1.63 nM
Maximum MFI (cynomolgus monkey CD25 [2]): 31500 MFI
EC50 (human CD25 [3]): 30 nM
Maximum MFI (human CD25 [3]): 9510 MFI
B1: PR008014 (antibody, human IgG1, kappa, V domains shown)
VH: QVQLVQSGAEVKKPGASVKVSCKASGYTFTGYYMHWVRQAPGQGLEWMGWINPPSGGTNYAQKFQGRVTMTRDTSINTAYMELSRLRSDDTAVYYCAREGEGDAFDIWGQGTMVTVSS
VL: DFQMTQSPSTLSASVGDRVTITCRASQSISSWLAWYQQKPGKAPKLLIYEASSLKSGVPSRFSGSESGTEFTLTISSLQPDDFATYYCHQYLSYSTFGQGTKVEIKR
notes: PTM variant of PR006931 (VH: N54P, S60Y); human IgG1

EC50 (human CD25 [4]): 55 nM
Maximum MFI (human CD25 [4]): 8720 MFI
EC50 (human CD25 [5]): 6 nM
Maximum MFI (human CD25 [5]): 35300 MFI
B2: PR006984 (antibody, human IgG1, kappa, V domains shown)
VH: QVHLVESGGGVVQPGRSLRLSCAASGFTFSKYDMHWVRQAPGKGLEWVAVVWFDGINKSYIDSVRGRFTISRDNSKSTLYLQMNSLRDDDTAVYYCAREGVGDAFDIWGQGAMVTVSS
VL: DIQMTQSPSTLSASVGDRVTITCRASQSISSWLAWYQQKPGKAPKLLIYKASSLESGVPSRFSGSESGTEFTLTITSLQPNDFATYYCQQYNSYSTFGQGTRLEIKR
notes: Fully human recombinant IgG1, kappa; also called 180F6E8

EC50 (human CD25 [6]): 0.85 nM
EC50 (human CD25 [7]): 20 nM
B3: PR008015 (antibody, human IgG1, kappa, V domains shown)
VH: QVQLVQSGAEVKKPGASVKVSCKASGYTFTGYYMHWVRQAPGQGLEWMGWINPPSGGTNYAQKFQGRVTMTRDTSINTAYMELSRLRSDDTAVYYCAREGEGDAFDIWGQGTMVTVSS
VL: DFQMTQSPSTLSASVGDRVTITCRASQSISSWLAWYQQKPGKAPKLLIYEASSLKSGVPSRFSGSESGTEFTLTISSLQPDDFATYYCHQYMSYSTFGQGTKVEIKR
notes: PTM variant of PR006931 (VH:N54P, S60Y); human IgG1

EC50 (human CD25 [8]): 2.81 nM
EC50 (cynomolgus monkey CD25 [9]): 6.4 nM
EC50 (human CD25 [10]): 2.4 nM
EC50 (human CD25 [11]): 2.73 nM
B4: PR005497 (antibody, human IgG1, kappa, V domains shown)
VH: QVQLQQSGPGLVKPSQTLSLTCAISGDSVSNNNAAWNWIRQSPSRGLEWLGRTHYRSDRSKWYNDYAVSVKSRITINSDTFKNQFSLQLNPVTPEDTAVYYCARDWDHDAFDIWGQGTMVTVSS
VL: DIQMTQSPSTLSASVGDRVTITCRASQSISGWLAWYQQKPGKAPKLLIYKASSLETGVPSRFSGSGSGTEFTLTISSLQPDDFATYYCLQYNGYSTFGGGTKVEIKR
notes: Fully human recombinant IgG1, kappa; also called 245E10F1

EC50 (human CD25 [1]): 4.02 nM
Maximum MFI (human CD25 [1]): 34500 MFI
EC50 (cynomolgus monkey CD25 [2]): 2.25 nM
Maximum MFI (cynomolgus monkey CD25 [2]): 27900 MFI
EC50 (human CD25 [3]): 40 nM
Maximum MFI (human CD25 [3]): 8600 MFI
B5: PR008016 (antibody, human IgG1, kappa, V domains shown)
VH: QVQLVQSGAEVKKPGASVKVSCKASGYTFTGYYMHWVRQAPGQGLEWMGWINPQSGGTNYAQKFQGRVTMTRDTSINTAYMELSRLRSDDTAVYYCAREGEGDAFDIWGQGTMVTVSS
VL: DFQMTQSPSTLSASVGDRVTITCRASQSISSWLAWYQQKPGKAPKLLIYEASSLKSGVPSRFSGSESGTEFTLTISSLQPDDFATYYCHQYMSYSTFGQGTKVEIKR
notes: PTM variant of PR006931 (VH:N54Q, S60Y); human IgG1

EC50 (human CD25 [12]): 39.3 nM
Maximum MFI (human CD25 [12]): 16800 MFI
EC50 (human CD25 [13]): 2.94 nM
Maximum MFI (human CD25 [13]): 32200 MFI
EC50 (cynomolgus monkey CD25 [14]): 3.53 nM
Maximum MFI (cynomolgus monkey CD25 [14]): 132000 MFI
B6: PR006769 (antibody, human IgG1, kappa, V domains shown)
VH: QVQLQGSGPGLVKPSGTLSLTCAVSPGSISSSNWWNWVRQPPGKGLEWIGEIYHRGSTNYNPSLKSRVTISVDKSKNQFSLKLSSVTAADTAVYYCTHYYYDSSGYYYGYWGQGTLVTVSS
VL: DIVMTQSPLSLPVTPGEPASISCRSSQSLLHRDVYNYVDWYLQKPGQSPQLLIYLGSNRASGVPDRFSGSGSGTDFTLKISRVEAEDVGVYYCMQALQTPLTFGGGTKVEIKR
notes: PTM variant of PR005436 (VH:D26P); human IgG1

EC50 (cynomolgus monkey CD25 [15]): 1.75 nM
Maximum MFI (cynomolgus monkey CD25 [15]): 189000 MFI
EC50 (human CD25 [16]): 67.2 nM
Maximum MFI (human CD25 [16]): 32100 MFI
EC50 (human CD25 [17]): 0.86 nM
Maximum MFI (human CD25 [17]): 49200 MFI
EC50 (human CD25 [18]): 1.4 nM
Maximum MFI (human CD25 [18]): 33300 MFI
B7: PR005436 (antibody, human IgG1, kappa, V domains shown)
VH: QVQLQGSGPGLVKPSGTLSLTCAVSDGSISSSNWWNWVRQPPGKGLEWIGEIYHRGSTNYNPSLKSRVTISVDKSKNQFSLKLSSVTAADTAVYYCTHYYYDSSGYYYGYWGQGTLVTVSS
VL: DIVMTQSPLSLPVTPGEPASISCRSSQSLLHRDGYNYVDWYLQKPGQSPQLLIYLGSNRASGVPDRFSGSGSGTDFTLKISRVEAEDVGVYYCMQALQTPLTFGGGTKVEIKR
notes: Fully human recombinant IgG1, kappa; also called 310D11F6

EC50 (human CD25 [12]): 40 nM
Maximum MFI (human CD25 [12]): 8970 MFI
EC50 (human CD25 [13]): 4.56 nM
Maximum MFI (human CD25 [13]): 29800 MFI
EC50 (cynomolgus monkey CD25 [14]): 5.35 nM
Maximum MFI (cynomolgus monkey CD25 [14]): 136000 MFI
B8: PR006771 (antibody, human IgG1, kappa, V domains shown)
VH: QVQLQGSGPGLVKPSGTLSLTCAVSPGSISSSNWWNWVRQPPGKGLEWIGEIYHRGSTNYNPSLKSRVTISVDKSKNQFSLKLSSVTAADTAVYYCTHYYYDSSGYYYGYWGQGTLVTVSS
VL: DIVMTQSPLSLPVTPGEPASISCRSSQSLLHRRGYNYVDWYLQKPGQSPQLLIYLGSNRASGVPDRFSGSGSGTDFTLKISRVEAEDVGVYYCMQALQTPLTFGGGTKVEIKR
notes: as for B6

EC50 (human CD25 [19]): 1.55 nM
EC50 (human CD25 [20]): 8 nM
EC50 (cynomolgus monkey CD25 [21]): 2.25 nM
B9: PR008197 (antibody, human IgG1, kappa, V domains shown)
VH: QVQLQGSGPGLVKPSGTLSLTCAVSPGSISSSNWWNWVRQPPGKGLEWIGEIYHRGSTNYNPSLKSRVTISVDKSKNQFSLKLSSVTAADTAVYYCTHYYYDSSGYYYGYWGQGTLVTVSS
VL: DIVMTQSPLSLPVTPGEPASISCRSSQSLLHRDVYNYVDWYLQKPGQSPQLLIYLGSNRASGVPDRFSGSGSGTDFTLKISRVEAEDVGVYYCLQALQTPLTFGGGTKVEIKR
notes: as for B6

EC50 (human CD25 [4]): 20 nM
Maximum MFI (human CD25 [4]): 10600 MFI
EC50 (human CD25 [5]): 1.85 nM
Maximum MFI (human CD25 [5]): 34700 MFI
B10: PR006928 (antibody, human IgG1, kappa, V domains shown)
VH: QVQLVQSGGGVVQPGRSLRLSCAASGFTFSNYDMHWVRQAPGKGLEWVAVIWYDGINKHYTDSVKGRFTMSRDNFKNTLHLQMNSLRAEDTAIYYCAREGAGDAFDIWGQGTMVTVSS
VL: DIQMTQSPSTLSASVGDRVTITCRASQSFDNWLAWYQQKPGKAPKLLIYKASSLESGVPSRFSGSGSGTEFTLTISSLQPDDFATYYCQQYNSYSTFGQGTRLEIKR
notes: Fully human recombinant IgG1, kappa; also called 150G7E2

EC50 (human CD25 [22]): 1.95 nM
EC50 (human CD25 [23]): 1.73 nM
B11: PR006110 (antibody, V domains shown)
VH: QVQLQESGPGLVKPSGTLSLTCAVSGGSISSSNYWSWVRQPPGKGLEWIGEIYHSGSTNYNPSLKSRVTISLDKSKNQFSLKLSSVTAADTAVYYCARDRNYGSGNYPHYYHYYGMDVWGQGTTVTVSS
VL: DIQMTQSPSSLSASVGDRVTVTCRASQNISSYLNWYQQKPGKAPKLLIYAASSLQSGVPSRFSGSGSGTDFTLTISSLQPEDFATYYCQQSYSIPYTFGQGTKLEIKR
notes: Fully human recombinant IgG1, kappa; also called 307B8G6

EC50 (human CD25 [4]): 5.81 nM
Maximum MFI (human CD25 [4]): 10200 MFI
EC50 (human CD25 [5]): 1.68 nM
Maximum MFI (human CD25 [5]): 32500 MFI
B12: PR007181 (antibody, human IgG1, kappa, V domains shown)
VH: QVQLQESGPGLVKPSGTLSLTCAVSGGSISSSNWWSWVRQSPGKGLEWIGEIYHSGSTNYNPSLKSRVTISVDKSKNQFSLKLSSVTAADTAVYYCARDRLVAVAGIFDYWGQGTLVTVSS
VL: EIVMTQSPATLSVSPGERATFSCRASQTVSSDLAWYQQKPGQAPRLLIYGASTRATGIPARFSGSGSGTEFTLTISSLQSEDFAFYYCQQSNDWPYTFGQGTKLEIKR
notes: Fully human recombinant IgG1, kappa; also called 111C1D7

— patent US20250154268A1 (NONA BIOSCIENCES SUZHOU, published 2025)
